Assay results from patent US20250325556A1, “COMPOSITIONS FOR LOCAL BONE FORMATION” (OssiFi Therapeutics LLC, priority 2021, published 2025).

B1: sclerostin: ectopic sclerostin protein added to cells; inhibits mineralization in MC3T3 osteoblast cells (protein, UniProt Q9BQB4 24-213, looked up)
Sclerostin: QGWQAFKNDATEIIPELGEYPEPPPELENNKTMNRAENGGRPPHHPFETKDVSEYSCRELHFTRYVTDGPCRSAKPVTELVCSGQCGPARLLPNAIGRGKWWRPSGPDFRCIPDRYRAQRVQLLCPGGEAPRARKVRLVASCKCKRLTRFHNQSELKDFGTEAARPQKGRKPRPRARSAKANQAELENAY

System: MC3T3-E1 (mouse calvarial) osteoblast cells
Assay: Mineralization assay: rescue of the inhibition of mineralization by sclerostin (ARS mineralization)
Assay type: cell-based
Conditions: for ARS mineralization relative to wildtype mineralization: additive alone, no O20221-1, compared with cells with no additives
From the text: Mineralization (crystalline calcium phosphate formation) represents an in vitro model of bone formation. Using an assay in which the amount of mineralization is quantified by measuring total calcium after solubilization of deposited crystalline calcium phosphate, sclerostin was previously shown to inhibit mineralization in MC3T3-E1 (mouse calvarial) osteoblast cells. Li et al., J Bone Miner Res 24:578-588 (2008). Following the protocol described in Li et al., Compositions prepared in accordance with Example 1 or mixtures of the described composition components were assayed for their ability to rescue the inhibition of mineralization by sclerostin in MC3T3 osteoblast cells. This assay was used in the examples listed below.

Molecule	ARS mineralization, restoration of normal (wildtype) mineral (in presence of sclerostin, compared with wildtype mineralization (cells with no additives))	ARS mineralization relative to wildtype mineralization	ARS mineralization relative to wildtype mineralization (listed as Sclerostin)
COc1ccc2c3ccnc(C(F)(F)F)c3n(CCN3CCOCC3)c2n1 [O20221-1, 4-(2-(2-methoxy-8-(trifluoromethyl)-9H-pyrrolo[2,3-b:5,4-c′]dipyridin-9-yl)ethyl)morpholine]	restores normal mineral	–	–
B1	–	inhibits normal mineralization	inhibits wildtype mineralization
